Assays:
[1] = target: T1, mouse PRLR on Baf3-mPRLR cells (mouse, UniProt Q08501 20-608); experiment: FACS Baf3-mPRLR 10 ug/mL
T1 construct: whole, on cells
T1 sequence (looked up): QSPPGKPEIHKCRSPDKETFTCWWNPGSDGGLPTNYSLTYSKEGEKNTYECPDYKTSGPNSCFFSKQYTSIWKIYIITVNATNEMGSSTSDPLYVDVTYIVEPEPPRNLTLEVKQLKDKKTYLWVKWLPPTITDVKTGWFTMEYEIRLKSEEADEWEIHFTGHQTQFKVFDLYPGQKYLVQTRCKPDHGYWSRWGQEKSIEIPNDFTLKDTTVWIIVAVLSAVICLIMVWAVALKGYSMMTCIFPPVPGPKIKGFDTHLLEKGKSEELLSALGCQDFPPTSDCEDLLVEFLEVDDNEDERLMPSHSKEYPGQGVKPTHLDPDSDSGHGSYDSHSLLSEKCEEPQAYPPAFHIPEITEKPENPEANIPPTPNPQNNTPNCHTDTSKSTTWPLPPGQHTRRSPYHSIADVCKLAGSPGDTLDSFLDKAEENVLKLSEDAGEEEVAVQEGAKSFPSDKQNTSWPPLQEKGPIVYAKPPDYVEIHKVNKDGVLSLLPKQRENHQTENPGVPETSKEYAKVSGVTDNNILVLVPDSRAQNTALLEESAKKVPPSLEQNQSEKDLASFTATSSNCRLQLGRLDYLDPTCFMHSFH
Experimental: (§1) Nb2-11 and Baf3-xPRLR cells were resuspended in FACS buffer (PBS+1% FBS) at 2 millions cells/mL. Cells were added to round bottom 96-well plate (100 uL/well) and treated with testing PRLR antibodies for 1 hr at 4 C. Cells were then washed with FACS buffer twice and incubated with 2nd antibody conjugated to ALEXA488 (Invitrogen) for 1 hr at 4 C. After two washes in FACS buffer, cells were resuspended in 1% formaldehyde in PBS. Cells were analyzed using LSRII flowcytometer.

human PRLR on cells [2] = target: T2, human PRLR on cells (human, UniProt P16471 25-622); experiment: FACS T47D 10 ug/mL
T2 construct: Endogenous on T47D cells, transfected in Baf3-hPRLR cells; also called hPRLR; T47D cells
T2 sequence: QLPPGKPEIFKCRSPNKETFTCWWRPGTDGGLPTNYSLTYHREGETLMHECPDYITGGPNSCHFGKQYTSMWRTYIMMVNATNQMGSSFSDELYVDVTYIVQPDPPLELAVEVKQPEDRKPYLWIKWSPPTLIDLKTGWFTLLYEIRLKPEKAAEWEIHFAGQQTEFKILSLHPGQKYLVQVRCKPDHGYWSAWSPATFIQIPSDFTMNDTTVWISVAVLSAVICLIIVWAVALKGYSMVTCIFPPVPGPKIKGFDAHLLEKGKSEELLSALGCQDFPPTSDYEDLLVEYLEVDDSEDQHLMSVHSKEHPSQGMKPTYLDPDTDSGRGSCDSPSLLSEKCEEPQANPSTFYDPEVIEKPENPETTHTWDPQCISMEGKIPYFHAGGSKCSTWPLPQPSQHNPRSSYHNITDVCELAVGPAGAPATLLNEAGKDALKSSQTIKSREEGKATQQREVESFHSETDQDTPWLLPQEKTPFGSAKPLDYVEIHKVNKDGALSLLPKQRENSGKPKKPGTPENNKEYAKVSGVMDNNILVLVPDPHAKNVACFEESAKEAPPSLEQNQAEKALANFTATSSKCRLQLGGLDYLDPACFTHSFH

[3] = target: T3, human PRLR ECD-Fc fusion protein (human, UniProt P16471 25-233); experiment: ELISA on ECD
T3 construct: not shown: Fc region (captured by goat anti-human Fc)
T3 sequence: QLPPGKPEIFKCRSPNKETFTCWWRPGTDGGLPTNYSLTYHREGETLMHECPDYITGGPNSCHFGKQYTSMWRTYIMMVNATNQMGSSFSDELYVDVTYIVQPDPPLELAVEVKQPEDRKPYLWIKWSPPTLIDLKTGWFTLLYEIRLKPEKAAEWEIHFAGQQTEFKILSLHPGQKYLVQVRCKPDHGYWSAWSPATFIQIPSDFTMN
In short: (§2)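 EC50 values derive from fitted binding curves of antibody serial dilutions (1 h) on captured PRLR. Detection used an HRP-conjugated secondary (1 h), TMB development for 3–5 min, an H₂SO₄ stop and a 450 nm read, with all steps in Tween/PBS pH 7.4 buffer.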

[4] = target: T4, rat PRLR on Nb2-11 rat lymphoma cells (rat, UniProt P05710 20-610); experiment: FACS Nb2-11 20 ug/mL
T4 construct: whole, on cells
T4 sequence (looked up): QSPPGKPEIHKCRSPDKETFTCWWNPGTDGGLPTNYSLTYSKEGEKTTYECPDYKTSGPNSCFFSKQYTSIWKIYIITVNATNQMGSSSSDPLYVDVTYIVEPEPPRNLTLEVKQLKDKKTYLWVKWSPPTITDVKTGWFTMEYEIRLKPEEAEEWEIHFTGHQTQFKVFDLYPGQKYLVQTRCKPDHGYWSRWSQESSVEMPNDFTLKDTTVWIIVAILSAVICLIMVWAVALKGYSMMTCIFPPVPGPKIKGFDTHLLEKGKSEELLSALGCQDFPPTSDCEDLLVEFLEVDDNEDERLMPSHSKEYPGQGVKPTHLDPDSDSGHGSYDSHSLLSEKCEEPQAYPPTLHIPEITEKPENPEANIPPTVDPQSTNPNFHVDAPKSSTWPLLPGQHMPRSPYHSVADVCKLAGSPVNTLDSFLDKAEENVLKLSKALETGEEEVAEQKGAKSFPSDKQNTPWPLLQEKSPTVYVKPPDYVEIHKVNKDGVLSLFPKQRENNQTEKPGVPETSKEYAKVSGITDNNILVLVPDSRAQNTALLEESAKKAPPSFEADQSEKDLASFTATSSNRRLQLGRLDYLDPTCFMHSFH
Experimental: as §1

[5] = target: T4, rat PRLR on Nb2-11 rat lymphoma cells; experiment: cell-based or functional assay
human PRLR on cells [6] = target: T2, human PRLR on cells; experiment: cell-based or functional assay
[7] = target: T1, mouse PRLR on Baf3-mPRLR cells; experiment: cell-based or functional assay
[8] = target: cyno PRLR on Baf3-cyPRLR cells (cyno); experiment: cell-based or functional assay
[9] = target: T5, human PRLR (Biacore antigen) (human, UniProt P16471 25-234, limits assumed); experiment: SPR Biacore
T5 construct: The construct injected over captured antibody is not described (a soluble form is likely); also called huPRLR
T5 sequence: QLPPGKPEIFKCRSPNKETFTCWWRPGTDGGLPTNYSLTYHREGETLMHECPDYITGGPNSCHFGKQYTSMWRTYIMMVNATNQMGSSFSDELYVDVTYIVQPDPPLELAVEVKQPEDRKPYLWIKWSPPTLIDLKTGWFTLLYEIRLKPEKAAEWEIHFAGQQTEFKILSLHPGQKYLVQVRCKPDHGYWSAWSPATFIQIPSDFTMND
In short: (§3)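 Association rate, dissociation rate and dissociation constant were measured by surface plasmon resonance on a Biacore instrument. PRLR antigen was tested at 600 nM, 66.67 nM and 7.41 nM, a 3-point, 9-fold dilution series. Constants came from a 1:1 binding model fit (local Rmax, mass-transport term included) in Biacore T200 Evaluation Software.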

[10] = target: T5, human PRLR (Biacore antigen); experiment: SPR Biacore; remark: listed apart in the source
[11] = target: T6, cyno PRLR ECD-his6 protein (cyno); experiment: ELISA on ECD
T6 chain: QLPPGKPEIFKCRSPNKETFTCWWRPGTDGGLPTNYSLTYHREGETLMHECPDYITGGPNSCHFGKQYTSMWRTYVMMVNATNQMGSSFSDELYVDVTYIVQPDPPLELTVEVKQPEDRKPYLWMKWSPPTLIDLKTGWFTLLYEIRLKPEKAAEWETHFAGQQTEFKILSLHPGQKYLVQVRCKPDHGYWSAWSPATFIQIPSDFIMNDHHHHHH
In short: as §2

[12] = target: T7, murine PRLR (Biacore antigen) (murine, UniProt Q08501 20-229, limits assumed); experiment: SPR Biacore
T7 construct: also called muPRLR
T7 sequence (looked up): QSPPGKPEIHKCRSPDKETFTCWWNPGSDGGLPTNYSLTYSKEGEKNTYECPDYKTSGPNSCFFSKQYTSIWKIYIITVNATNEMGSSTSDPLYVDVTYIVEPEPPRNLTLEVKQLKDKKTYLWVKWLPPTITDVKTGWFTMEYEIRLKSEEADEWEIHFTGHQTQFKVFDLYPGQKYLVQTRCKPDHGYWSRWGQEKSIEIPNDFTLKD
In short: as §3

[13] = target: T8, cyno PRLR (Biacore antigen) (cyno, UniProt A0A2K5WXK1 25-234); experiment: SPR Biacore
T8 construct: also called cyPRLR
T8 sequence: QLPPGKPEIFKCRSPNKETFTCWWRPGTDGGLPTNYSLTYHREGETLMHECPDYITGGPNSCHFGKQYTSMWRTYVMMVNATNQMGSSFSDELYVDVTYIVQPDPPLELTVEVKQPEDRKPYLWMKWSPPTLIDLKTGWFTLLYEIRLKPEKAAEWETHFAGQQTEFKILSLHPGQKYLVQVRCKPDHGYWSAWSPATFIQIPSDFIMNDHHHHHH
In short: as §3

B1: Ab9 (antibody, V domains shown)
VH: EVQLQQSGPELVRPGASVKISCKASGYSFTDYNMHWVKQSHGKSLEWIGYIYPYNGGAGYNQKFKSKATMNVGISSSTAYMELRSLTSEDSAVYYCARGDGNYVGDMDYWGQGTSVTVSS
VL: DIQMTQSPASLSASVGETVTITCRASENIYSYLAWYQQKQGKSPQLLVYNAKTLAEGVPSRFSGSGSGTQFSLKINSLQPEDFGSYYCQHHSGTPFTFGSGTKLEIK
notes: murine monoclonal, isotype G2b; also called murine Ab9
FACS GeoMean-neg [1]: 1
FACS GeoMean-neg (human PRLR on cells [2]): 1870
EC50 [3]: 0.072 nM
FACS GeoMean-neg [4]: 0
Nb2-11 proliferation IC50 [5]: > 30 µg/mL
Baf3-hPRLR proliferation IC50 (human PRLR on cells [6]): 0.51 µg/mL
T47D pPRLR ELISA IC50 (human PRLR on cells [6]): 0.072 µg/mL
Baf3-mPRLR proliferation IC50 [7]: > 30 µg/mL
Baf3-cyPRLR proliferation IC50 [8]: 6.4 µg/mL
Kd [9]: 0.226 nM
koff [9]: 0.000131 s⁻¹
kon [9]: 577000 M⁻¹ s⁻¹

B2: Ab36 (antibody, human IgG1, kappa, V domains shown)
VH: EVQLVQSGAEVKKPGSSVKVSCKASGYTFTSYWIHWVRQAPGQGLEWMGEIDPSDSYTNYNQKFKGRVTITADKSTSTAYMELSSLRSEDTAVYYCARSFFTNWFAYWGQGTLVTVSS
VL: DVVMTQTPLSLSVTPGQPASISCRSSQSLVHSNGNTYLHWYLQKPGQSPQLLIYKVSNRFSGVPDRFSGSGSGTDFTLKISRVEAEDVGVYFCSQSTHVPFTFGGGTKVEIKR
notes: humanized from Ab7; G1; also called Ab4 HC.1 and Ab4 LC.1a
fold decrease in affinity against chAb7 [10]: ~45 fold
EC50 [11]: 0.538 nM
EC50 [3]: 0.556 nM
Baf3-hPRLR proliferation IC50 (human PRLR on cells [6]): 0.28 µg/mL
Baf3-mPRLR proliferation IC50 [7]: > 30 µg/mL
Baf3-cyPRLR proliferation IC50 [8]: 0.41 µg/mL
Kd [12]: 1140 nM
koff [12]: 0.0568 s⁻¹
kon [12]: 49800 M⁻¹ s⁻¹
Kd [13]: 8.51 nM
koff [13]: 0.00114 s⁻¹
kon [13]: 133000 M⁻¹ s⁻¹
Kd [9]: 8.13 nM
koff [9]: 0.00128 s⁻¹
kon [9]: 157000 M⁻¹ s⁻¹

B3: Ab55 (antibody, human IgG1, kappa, V domains shown)
VH: EVQLVQSGAEVKKPGSSVKVSCKASGYTFTSYWIHWVRQAPGQGLEWIGEIDPSDSYTNYNQKFKGRATLTVDRSSSTAYMELSSLRSEDTAVYYCGRSFFTNWFAYWGQGTLVTVSS
VL: DVVMTQTPLSLSVTPGQPASISCRSSQSLVHSNGNTYLHWYLQKPGQSPQLLIYKVSNRFSGVPDRFSGSGSGTDFTLKISRVEAEDVGVYFCSQSTHVPFTFGGGTKVEIKR
notes: humanized from Ab7 (back mutations on Ab39); G1; also called Ab4 HC.1a.2 and Ab4 LC.1a
fold weaker affinity than chAb7 [10]: ~4 fold
Baf3-hPRLR proliferation IC50 (human PRLR on cells [6]): 0.92 µg/mL
Kd [12]: 140 nM
koff [12]: 0.0063 s⁻¹
kon [12]: 44000 M⁻¹ s⁻¹
Kd [13]: 0.59 nM
koff [13]: 9.8e-05 s⁻¹
kon [13]: 170000 M⁻¹ s⁻¹
Kd [9]: 0.67 nM
koff [9]: 0.00012 s⁻¹
kon [9]: 170000 M⁻¹ s⁻¹

B4: Ab54 (antibody, human IgG1, kappa, V domains shown)
VH: EVQLVQSGAEVKKPGSSVKVSCKASGYTFTSYWIHWVRQAPGQGLEWIGEIDPSDSYTNYNQKFKGRATLTVDKSSSTAYMELSSLRSEDTAVYYCGRSFFTNWFAYWGQGTLVTVSS
VL: DVVMTQTPLSLSVTPGQPASISCRSSQSLVHSNGNTYLHWYLQKPGQSPQLLIYKVSNRFSGVPDRFSGSGSGTDFTLKISRVEAEDVGVYFCSQSTHVPFTFGGGTKVEIKR
notes: humanized from Ab7 (back mutations on Ab39); G1; also called Ab4 HC.1a.3 and Ab4 LC.1a
fold weaker affinity than chAb7 [10]: ~5 fold
Baf3-hPRLR proliferation IC50 (human PRLR on cells [6]): 0.77 µg/mL
Kd [12]: 170 nM
koff [12]: 0.007 s⁻¹
kon [12]: 41000 M⁻¹ s⁻¹
Kd [13]: 0.85 nM
koff [13]: 0.00012 s⁻¹
kon [13]: 140000 M⁻¹ s⁻¹
Kd [9]: 1 nM
koff [9]: 0.00014 s⁻¹
kon [9]: 140000 M⁻¹ s⁻¹
